Results reported in publication PMC13241479, “GPLD1 is a scavenger carrier mediating lysosomal degradation of extracellular aberrant proteins” (Life Science Alliance, 2026).

B1: His-ALFA-SAA1-N terminus (human SAA1 19-94 aa) (domain or fragment, UniProt P0DJI8 19-94, looked up)
chain: RSFFSFLGEAFDGARDMWRAYSDMREANYIGSDKYFHARGNYDAAKRGPGGAWAAEVITDARENIQRFFGHGAEDS
notes: serum amyloid A1, human, residues 19-94; the N-terminal 76 aa residues, the core amyloidogenic fragment; Prepared in 8 M urea-denatured form for all experiments; aggregates on dilution into PBS; also called His-ALFA-tagged SAA1-N; source: E. coli BL21(DE3) pLysS, purified from inclusion bodies under denaturing conditions (8 M urea, Co-NTA); not shown: His, N-terminal, kept; ALFA, N-terminal, kept
B2: His-ALFA-SAA1-Full length (human SAA1 19-122 aa) (natural protein, UniProt P0DJI8 19-122, looked up)
chain: RSFFSFLGEAFDGARDMWRAYSDMREANYIGSDKYFHARGNYDAAKRGPGGAWAAEVITDARENIQRFFGHGAEDSLADQAANEWGRSGKDPNHFRPAGLPEKY
notes: The purification of the native full-length form is not described in the methods (only SAA1-N and Ab42 from inclusion bodies); source: E. coli BL21(DE3) pLysS, recombinant, used native; not shown: His, N-terminal, kept; ALFA, N-terminal, kept

Target: T1, GPLD1-mCherry-sfGFP-His (glycosylphosphatidylinositol-specific phospholipase D1) (human, UniProt P80108 24-840)
T1 construct: glycosylphosphatidylinositol-specific phospholipase D1, human, full-length cDNA amplified from HepG2 cells; fusion of about 160 kD; also called GPLD1-RG; GPLD1-RFP-GFP; not shown: mCherry, C-terminal, kept; sfGFP, C-terminal, kept; His, C-terminal, kept
T1 sequence (looked up): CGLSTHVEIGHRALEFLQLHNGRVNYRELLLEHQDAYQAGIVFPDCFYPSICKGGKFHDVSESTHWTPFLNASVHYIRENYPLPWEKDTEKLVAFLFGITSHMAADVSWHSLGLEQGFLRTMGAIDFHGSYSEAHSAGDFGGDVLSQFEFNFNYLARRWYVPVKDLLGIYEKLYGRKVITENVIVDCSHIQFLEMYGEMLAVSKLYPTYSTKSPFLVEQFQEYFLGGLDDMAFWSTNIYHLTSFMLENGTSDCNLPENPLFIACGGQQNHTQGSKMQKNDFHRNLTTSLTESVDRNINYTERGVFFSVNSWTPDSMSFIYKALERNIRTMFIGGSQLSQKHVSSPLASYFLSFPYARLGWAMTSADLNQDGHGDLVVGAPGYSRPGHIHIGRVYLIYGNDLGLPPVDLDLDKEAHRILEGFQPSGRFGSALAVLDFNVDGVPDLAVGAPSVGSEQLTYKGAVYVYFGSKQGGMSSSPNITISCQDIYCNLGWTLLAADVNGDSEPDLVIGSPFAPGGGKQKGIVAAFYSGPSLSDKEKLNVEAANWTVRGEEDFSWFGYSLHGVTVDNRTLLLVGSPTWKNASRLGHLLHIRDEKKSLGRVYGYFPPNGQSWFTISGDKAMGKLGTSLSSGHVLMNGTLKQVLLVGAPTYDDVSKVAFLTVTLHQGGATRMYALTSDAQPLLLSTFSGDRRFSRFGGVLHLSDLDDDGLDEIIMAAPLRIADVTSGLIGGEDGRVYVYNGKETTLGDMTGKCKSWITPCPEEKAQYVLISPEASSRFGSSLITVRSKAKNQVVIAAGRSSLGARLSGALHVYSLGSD
Assay: co-IP; purified GPLD1-RG (40 nM) or clusterin-RG mixed with His-ALFA-SAA1 (500 nM) or ALFA-tagged Ab42 in PBS, 37°C with shaking for 2 h; aggregates removed at 20,000g; ALFA nanobody beads 2 h at 4°C; washed four times with PBS; immunoblot
Details: both partners purified

| Binder | binding result |
| --- | --- |
| B1 | binds |
| B2 | binds |
